# From patent publication US20240101645A1 (HENRY M JACKSON FOUNDATION FOR THE ADVANCEMENT OF MILITARY …, published 2024)
# T1: HCoV-OC43 spike antigens (bead panel) (HCoV-OC43, UniProt P36334 14-1297)
# T1 sequence: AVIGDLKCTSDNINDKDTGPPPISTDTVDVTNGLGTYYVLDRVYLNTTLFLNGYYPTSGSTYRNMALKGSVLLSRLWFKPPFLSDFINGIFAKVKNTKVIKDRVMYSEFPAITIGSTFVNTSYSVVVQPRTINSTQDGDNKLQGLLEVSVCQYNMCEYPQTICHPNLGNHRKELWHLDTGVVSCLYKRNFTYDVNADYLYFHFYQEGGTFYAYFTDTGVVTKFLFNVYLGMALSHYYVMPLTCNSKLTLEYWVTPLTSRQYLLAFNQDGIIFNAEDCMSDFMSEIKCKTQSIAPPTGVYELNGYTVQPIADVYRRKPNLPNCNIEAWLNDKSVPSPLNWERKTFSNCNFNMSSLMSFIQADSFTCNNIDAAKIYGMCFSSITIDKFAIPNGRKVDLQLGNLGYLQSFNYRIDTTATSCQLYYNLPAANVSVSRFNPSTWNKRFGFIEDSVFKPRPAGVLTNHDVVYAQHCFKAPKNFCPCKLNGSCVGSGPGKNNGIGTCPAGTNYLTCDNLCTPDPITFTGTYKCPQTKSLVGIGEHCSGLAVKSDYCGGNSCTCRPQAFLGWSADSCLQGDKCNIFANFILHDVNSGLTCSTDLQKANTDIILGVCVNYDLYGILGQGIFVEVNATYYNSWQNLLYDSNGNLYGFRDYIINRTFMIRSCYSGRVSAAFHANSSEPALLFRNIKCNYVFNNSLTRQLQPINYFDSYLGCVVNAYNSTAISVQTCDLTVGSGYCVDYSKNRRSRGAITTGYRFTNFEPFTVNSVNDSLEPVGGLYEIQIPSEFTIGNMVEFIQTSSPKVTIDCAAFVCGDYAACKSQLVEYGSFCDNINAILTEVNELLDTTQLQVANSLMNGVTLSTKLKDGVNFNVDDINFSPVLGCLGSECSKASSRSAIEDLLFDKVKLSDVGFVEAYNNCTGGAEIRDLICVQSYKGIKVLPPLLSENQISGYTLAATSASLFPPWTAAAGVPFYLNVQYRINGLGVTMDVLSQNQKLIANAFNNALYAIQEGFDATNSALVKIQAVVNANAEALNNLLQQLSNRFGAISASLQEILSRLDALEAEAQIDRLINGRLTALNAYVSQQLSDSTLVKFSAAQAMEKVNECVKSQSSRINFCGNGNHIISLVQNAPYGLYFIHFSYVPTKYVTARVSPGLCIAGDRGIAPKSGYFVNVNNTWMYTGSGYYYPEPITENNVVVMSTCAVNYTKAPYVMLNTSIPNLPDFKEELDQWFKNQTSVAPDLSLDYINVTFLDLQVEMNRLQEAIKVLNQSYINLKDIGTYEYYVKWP
# T2: HCoV-NL63 spike antigens (bead panel) (HCoV-NL63, UniProt Q6Q1S2 19-1296)
# T2 sequence: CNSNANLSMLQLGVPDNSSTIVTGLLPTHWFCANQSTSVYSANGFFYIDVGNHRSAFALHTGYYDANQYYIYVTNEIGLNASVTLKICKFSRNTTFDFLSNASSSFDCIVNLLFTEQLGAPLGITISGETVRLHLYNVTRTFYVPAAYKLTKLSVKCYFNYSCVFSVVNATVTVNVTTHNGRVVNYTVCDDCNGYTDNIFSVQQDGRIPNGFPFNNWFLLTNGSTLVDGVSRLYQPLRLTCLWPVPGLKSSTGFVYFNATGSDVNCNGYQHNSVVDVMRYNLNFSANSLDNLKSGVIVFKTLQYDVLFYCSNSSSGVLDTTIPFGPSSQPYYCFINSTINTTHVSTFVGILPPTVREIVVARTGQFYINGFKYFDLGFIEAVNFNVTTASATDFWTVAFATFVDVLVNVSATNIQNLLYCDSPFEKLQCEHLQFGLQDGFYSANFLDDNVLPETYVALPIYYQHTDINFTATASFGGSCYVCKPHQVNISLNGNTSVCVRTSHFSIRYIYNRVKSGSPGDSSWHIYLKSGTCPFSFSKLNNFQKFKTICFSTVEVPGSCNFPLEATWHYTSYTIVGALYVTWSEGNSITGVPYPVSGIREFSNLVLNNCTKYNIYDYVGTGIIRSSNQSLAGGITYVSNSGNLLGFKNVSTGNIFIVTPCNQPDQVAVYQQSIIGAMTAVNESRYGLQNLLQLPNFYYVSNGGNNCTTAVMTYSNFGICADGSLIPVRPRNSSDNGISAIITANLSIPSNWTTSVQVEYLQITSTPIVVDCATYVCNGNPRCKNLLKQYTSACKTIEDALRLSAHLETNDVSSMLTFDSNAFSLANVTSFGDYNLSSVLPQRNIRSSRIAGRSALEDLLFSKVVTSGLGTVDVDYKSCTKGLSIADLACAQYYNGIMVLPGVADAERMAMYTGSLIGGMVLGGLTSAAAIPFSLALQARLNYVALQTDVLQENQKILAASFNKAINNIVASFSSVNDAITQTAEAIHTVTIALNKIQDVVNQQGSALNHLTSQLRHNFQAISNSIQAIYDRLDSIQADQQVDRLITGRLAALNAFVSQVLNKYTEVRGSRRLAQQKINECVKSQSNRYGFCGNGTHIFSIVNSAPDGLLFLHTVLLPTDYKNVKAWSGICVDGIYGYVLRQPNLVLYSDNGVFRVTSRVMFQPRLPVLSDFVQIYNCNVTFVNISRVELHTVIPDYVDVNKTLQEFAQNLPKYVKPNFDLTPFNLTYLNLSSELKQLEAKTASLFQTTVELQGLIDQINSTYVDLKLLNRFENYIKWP
# T3: HCoV-229E spike antigens (bead panel) (HCoV-229E, UniProt P15423 16-1115)
# T3 sequence: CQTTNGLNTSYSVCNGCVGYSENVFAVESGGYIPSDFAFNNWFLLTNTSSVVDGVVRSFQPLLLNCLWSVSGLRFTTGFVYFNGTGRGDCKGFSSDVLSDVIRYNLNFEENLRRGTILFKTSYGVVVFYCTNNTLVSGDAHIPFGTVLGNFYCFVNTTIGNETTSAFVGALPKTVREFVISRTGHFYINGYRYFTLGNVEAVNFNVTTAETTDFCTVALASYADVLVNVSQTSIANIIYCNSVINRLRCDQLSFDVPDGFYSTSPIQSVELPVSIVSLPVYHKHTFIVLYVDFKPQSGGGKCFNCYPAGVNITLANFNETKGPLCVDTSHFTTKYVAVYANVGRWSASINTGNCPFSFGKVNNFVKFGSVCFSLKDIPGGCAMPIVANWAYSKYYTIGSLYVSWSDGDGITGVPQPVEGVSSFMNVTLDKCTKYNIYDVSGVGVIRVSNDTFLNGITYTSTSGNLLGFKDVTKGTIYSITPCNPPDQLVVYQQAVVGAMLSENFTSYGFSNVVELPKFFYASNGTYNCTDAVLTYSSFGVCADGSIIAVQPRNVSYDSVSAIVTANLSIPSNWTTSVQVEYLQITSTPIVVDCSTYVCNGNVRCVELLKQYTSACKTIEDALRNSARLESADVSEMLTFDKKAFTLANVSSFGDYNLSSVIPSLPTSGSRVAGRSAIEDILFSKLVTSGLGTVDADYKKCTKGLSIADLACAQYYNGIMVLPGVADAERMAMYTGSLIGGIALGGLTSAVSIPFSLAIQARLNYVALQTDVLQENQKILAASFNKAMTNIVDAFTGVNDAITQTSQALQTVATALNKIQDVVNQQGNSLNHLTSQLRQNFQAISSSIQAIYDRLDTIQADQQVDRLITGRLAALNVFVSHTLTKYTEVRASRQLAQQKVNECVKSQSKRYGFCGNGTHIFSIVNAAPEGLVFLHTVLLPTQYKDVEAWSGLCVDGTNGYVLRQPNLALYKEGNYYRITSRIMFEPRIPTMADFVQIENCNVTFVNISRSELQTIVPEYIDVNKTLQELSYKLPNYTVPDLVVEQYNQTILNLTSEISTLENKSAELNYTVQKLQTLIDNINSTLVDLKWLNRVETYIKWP
# B1: COV_1007 (antibody, V domains shown)
# VH: QVTLKESGPVLVKPTETLTLTCTVSGFSLINARVGVSWIRQPPGKALDWLAHIFSSDEKSYSTSLKSRLTISKDTSKSQVVLTMTNMDPVDTATYYCARIRWLSSYYFDYWGQGTLVTVSS
# VL: DIRMTQSPSSVSASVGDRVTITCRASQGISNWLAWYQQKPGKAPKLLIYAASSLQSGVPSRFSGGGSGTDFTLTISSLQPEDFATYYCQQANSFLLTFGGGTKVEIK
# notes: human IgG1
# Key:
# [1] = target: SARS-CoV-2 S on pseudovirions (Wuhan Hu-1 / IL1/2020, last 18 amino acids removed) (SARS-CoV-2, UniProt P0DTC2 14-1273); assay: cell-based or functional assay
# [2] = target: SARS-CoV-1 spike antigens (bead panel) (SARS-CoV-1, UniProt P59594 14-1195); assay: multiplex bead assay
# [3] = target: T1, HCoV-OC43 spike antigens (bead panel); assay: multiplex bead assay
# [4] = target: T2, HCoV-NL63 spike antigens (bead panel); assay: multiplex bead assay
# [5] = target: T3, HCoV-229E spike antigens (bead panel); assay: multiplex bead assay
binder,measurement,setting,value
B1,"Mean IC50, pSV neutralization",[1],9 µg/ml
same,"Mean IC80, pSV neutralization",[1],≥ 25 µg/ml
same,binding result,[2],no binding
same,binding result,[3],no binding
same,binding result,[4],no binding
same,binding result,[5],no binding
